Measured values as given in US20170334988A1 (WALTER AND ELIZA HALL INSTITUTE OF MEDICAL RESEARCH, published 2017).
Ends that are not written are not given here. * marks the point of attachment. Biotin = O=C1N[C@H]2[C@H](CS[C@H]2CCCCC(=O)*)N1

Key:
[1] = biological target: T1, human BakΔC25 protein (residues 1-186 of SwissProt Accession No. Q16611.1) (human, UniProt Q16611 1-186); test: SPR, BIAcore 3000
T1 construct: also called humanAC25 Bak protein; hBakAC
T1 sequence: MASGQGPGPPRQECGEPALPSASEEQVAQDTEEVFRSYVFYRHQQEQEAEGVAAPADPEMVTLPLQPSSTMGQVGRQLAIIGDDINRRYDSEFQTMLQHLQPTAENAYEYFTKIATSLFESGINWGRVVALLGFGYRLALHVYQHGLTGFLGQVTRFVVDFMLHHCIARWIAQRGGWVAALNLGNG

[2] = biological target: T2, Bak loop peptide 46EQEAEGVAAPADPEMVTLPLQPSS69 (human); test: SPR, BIAcore 3000
T2 construct: also called Bak peptide (residues E46 to S69 of human Bak)
T2 peptide: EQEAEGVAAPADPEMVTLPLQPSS

[3] = biological target: T2, Bak loop peptide …; test: ITC at 25 °C, Ab 5 µM, peptide 100 µM, OneSites model
Description: (§1) FIG. 19: Isothermal Titration Microcalorimetry binding profile of 26/05-7D10-17-13 with loop peptide (⁴⁶[…]⁶⁹; SEQ ID NO: 21) at 25° C. A) Titration with Ab at 5 μM and peptide at 100 μM.
(§2) ITC experiments were performed using a MicroCal iTC 200 instrument from GE. Injections of 2.43 μl of peptide solution were added from a computer-controlled microsyringe at an interval of 3 min into the sample solution of antibody (cell volume=300 μl) with stirring at 1000 rpm. Titrations were done at pH 7.2 using […] phosphate-buffered saline. The experimental data were fitted to a theoretical titration curve using software supplied by Microcal.

[4] = biological target: T3, mouse Bak 15-mer peptide 71-85; test: peptide ELISA, A405
T3 construct: member of m18
T3 peptide: Biotin-SGSGQVGRQLALIGDDINR
Description: (§3) Since most epitopes were linear, further mapping was performed using peptide arrays. Two arrays of overlapping 15-mer peptides (each offset by 10 residues) that collectively spanned the entire sequences of human and mouse Bak were designed. Biotinylated peptides were immobilized on streptavidin-coated plates and each antibody tested by ELISA.

[5] = biological target: T4, human Bak 15-mer peptide for residues 11-25 (human, UniProt Q16611 11-25); test: peptide ELISA, A405
T4 construct: range 11-25
T4 peptide: Biotin-SGSGRQECGEPALPSASEE
Description: as §3

[6] = biological target: T5, mouse Bak 15-mer peptide 31-45; test: peptide ELISA, A405
T5 construct: member of m18
T5 peptide: Biotin-SGSGEVFRSYVFYLHQQEQ
Description: as §3

[7] = biological target: T6, human Bak 15-mer peptide 51-65; test: peptide ELISA, A405
T6 construct: member of m17
T6 peptide: Biotin-SGSGGVAAPADPEMVTLPL
Description: as §3

[8] = biological target: T7, human Bak 15-mer peptide 81-95; test: peptide ELISA, A405
T7 construct: member of m17
T7 peptide: Biotin-SGSGIGDDINRRYDSEFQT
Description: as §3

[9] = biological target: T8, mouse Bak 15-mer peptide 81-95; test: peptide ELISA, A405
T8 construct: member of m18
T8 peptide: Biotin-SGSGDDINRRYDTEFQNLL
Description: as §3

[10] = biological target: T9, human Bak 15-mer peptide 21-35; test: peptide ELISA, A405
T9 construct: member of m17
T9 peptide: Biotin-SGSGSASEEQVAQDTEEVF
Description: as §3

[11] = biological target: T10, human Bak 15-mer peptide 1-15; test: peptide ELISA, A405
T10 construct: member of m17
T10 peptide: Biotin-SGSGMASGQGPGPPRQECG
Description: as §3

[12] = biological target: T11, human Bak 15-mer peptide 31-45; test: peptide ELISA, A405
T11 construct: member of m17
T11 peptide: Biotin-SGSGTEEVFRSYVFYRHQQ
Description: as §3

[13] = biological target: T12, mouse Bak 15-mer peptide 41-55; test: peptide ELISA, A405
T12 construct: member of m18
T12 peptide: Biotin-SGSGHQQEQETQGAAAPAN
Description: as §3

[14] = biological target: T13, mouse Bak 15-mer peptide 21-35; test: peptide ELISA, A405
T13 construct: member of m18
T13 peptide: Biotin-SGSGSEQQVAQDTEEVFRS
Description: as §3

[15] = biological target: T14, human Bak 15-mer peptide 41-55; test: peptide ELISA, A405
T14 construct: member of m17
T14 peptide: Biotin-SGSGYRHQQEQEAEGVAAP
Description: as §3

[16] = biological target: T2, Bak loop peptide …; test: ITC at 25° C., Ab at 2.5 µM and peptide at 50 µM
Description: as §1, §2

human Bak G51C = biological target: T15, human Bak G51C (human, UniProt Q16611 2-211); test: immunoprecipitation from membranes incubated with or without tBid, western blot
T15 construct: whole, on cells; In membrane fractions
T15 sequence (looked up): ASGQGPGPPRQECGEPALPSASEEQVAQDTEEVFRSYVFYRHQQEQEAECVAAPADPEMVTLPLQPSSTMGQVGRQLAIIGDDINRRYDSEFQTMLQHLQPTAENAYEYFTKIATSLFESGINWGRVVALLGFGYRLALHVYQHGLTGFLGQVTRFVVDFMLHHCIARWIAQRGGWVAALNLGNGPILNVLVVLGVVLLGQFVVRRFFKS
Description: FIG. 4: Ability of antibodies to recognize Bak in different conformations. Membrane fractions from cells expressing Bak (as indicated) were incubated (30 min, 30° C.) with (+) or without (−) Bid, solubilized with digitonin, and incubated with the Bak antibodies shown. Bak in immunoprecipitates and whole cell lysate controls was detected by western blot using the 4B5 antibody. Data are representative of at least two independent experiments ND, not done.
Following activation of Bak in membrane fractions, samples were solubilized by incubation with 1% digitonin on ice for at least 30 min. […] After removing beads by repeated washes in Onyx buffer, lysates were incubated with constant agitation for 2 h at 4° C. with 4 ug/ml anti-Bak antibody, followed by incubation for 1 h at 4° C. with additional pre-washed Sepharose G beads. Immune complexes were isolated by centrifugation (13000 rpm, 2 min, 4° C.), washed 4 times with Onyx buffer, resuspended in sample buffer containing 2-mercaptoethanol and analyzed by western blotting.

[17] = biological target: T2, Bak loop peptide …; test: ITC at 25 °C, Ab 2.5 µM, peptide 50 µM, OneSites model
Description: as §1, §2

VAAPADPE = biological target: T16, VAAPADPE; test: peptide ELISA, A405
T16 construct: member of m19; also called hBak 8-mer 52-59
T16 peptide: Biotin-SGSGVAAPADPE

GVAAPADP = biological target: T17, GVAAPADP; test: peptide ELISA, A405
T17 construct: member of m19; also called hBak 8-mer 51-58
T17 peptide: Biotin-SGSGGVAAPADP

DTEEVFRS = biological target: T18, DTEEVFRS; test: peptide ELISA, A405
T18 construct: member of m19; also called hBak 8-mer 30-37
T18 peptide: Biotin-SGSGDTEEVFRS

EEQVAQDT = biological target: T19, EEQVAQDT; test: peptide ELISA, A405
T19 construct: member of m19; also called hBak 8-mer 24-31
T19 peptide: Biotin-SGSGEEQVAQDT

AQDTEEVF = biological target: T20, AQDTEEVF; test: peptide ELISA, A405
T20 construct: member of m19; also called hBak 8-mer 28-35
T20 peptide: Biotin-SGSGAQDTEEVF

TEEVFRSY = biological target: T21, TEEVFRSY; test: peptide ELISA, A405
T21 construct: member of m19; also called hBak 8-mer 31-38
T21 peptide: Biotin-SGSGTEEVFRSY

SEEQVAQD = biological target: T22, SEEQVAQD; test: peptide ELISA, A405
T22 construct: member of m19; also called hBak 8-mer 23-30
T22 peptide: Biotin-SGSGSEEQVAQD

VAQDTEEV = biological target: T23, VAQDTEEV; test: peptide ELISA, A405
T23 construct: member of m19; also called hBak 8-mer 27-34
T23 peptide: Biotin-SGSGVAQDTEEV

EQVAQDTE = biological target: T24, EQVAQDTE; test: peptide ELISA, A405
T24 construct: member of m19; also called hBak 8-mer 25-32
T24 peptide: Biotin-SGSGEQVAQDTE

EEVFRSYV = biological target: T25, EEVFRSYV; test: peptide ELISA, A405
T25 construct: member of m19; also called hBak 8-mer 32-39
T25 peptide: Biotin-SGSGEEVFRSYV

RSYVFYRH = biological target: T26, RSYVFYRH; test: peptide ELISA, A405
T26 construct: member of m19; also called hBak 8-mer 36-43
T26 peptide: Biotin-SGSGRSYVFYRH

FRSYVFYR = biological target: T27, FRSYVFYR; test: peptide ELISA, A405
T27 construct: member of m19; also called hBak 8-mer 35-42
T27 peptide: Biotin-SGSGFRSYVFYR

AEGVAAPA = biological target: T28, AEGVAAPA; test: peptide ELISA, A405
T28 construct: member of m19; also called hBak 8-mer 49-56
T28 peptide: Biotin-SGSGAEGVAAPA

EVFRSYVF = biological target: T29, EVFRSYVF; test: peptide ELISA, A405
T29 construct: member of m19; also called hBak 8-mer 33-40
T29 peptide: Biotin-SGSGEVFRSYVF

SYVFYRHQ = biological target: T30, SYVFYRHQ; test: peptide ELISA, A405
T30 construct: member of m19; also called hBak 8-mer 37-44
T30 peptide: Biotin-SGSGSYVFYRHQ

EGVAAPAD = biological target: T31, EGVAAPAD; test: peptide ELISA, A405
T31 construct: member of m19; also called hBak 8-mer 50-57
T31 peptide: Biotin-SGSGEGVAAPAD

QDTEEVFR = biological target: T32, QDTEEVFR; test: peptide ELISA, A405
T32 construct: member of m19; also called hBak 8-mer 29-36
T32 peptide: Biotin-SGSGQDTEEVFR

QVAQDTEE = biological target: T33, QVAQDTEE; test: peptide ELISA, A405
T33 construct: member of m19; also called hBak 8-mer 26-33
T33 peptide: Biotin-SGSGQVAQDTEE

VFRSYVFY = biological target: T34, VFRSYVFY; test: peptide ELISA, A405
T34 construct: member of m19; also called hBak 8-mer 34-41
T34 peptide: Biotin-SGSGVFRSYVFY

EAEGVAAP = biological target: T35, EAEGVAAP; test: peptide ELISA, A405
T35 construct: member of m19; also called hBak 8-mer 48-55
T35 peptide: Biotin-SGSGEAEGVAAP

[18] = biological target: T36, human Bak 8-mer peptide YVFYRHQQ (residues 38-45) (human); test: peptide ELISA, A405
T36 peptide: Biotin-SGSGYVFYRHQQ

[19] = biological target: T2, Bak loop peptide …; test: ITC at 25° C., Ab at 5 µM and peptide at 100 µM
Description: as §1, §2

Kd [1]: 0.466 nM
Kd [2]: 2.9 nM
Ka [3]: 2.34e+08 M⁻¹
ΔH [3]: -23.1 kcal/mol
ΔS [3]: -39.2 cal/mol/deg
binding result [4]: no binding
binding result [5]: no binding
binding result [6]: no binding
binding result [7]: binds
binding result [8]: no binding
binding result [9]: no binding
binding result [10]: no binding
binding result [11]: no binding
binding result [12]: no binding
binding result [13]: binds
binding result [14]: no binding
binding result [15]: binds
Kd [16]: < 4 nM
binding result (human Bak G51C): no binding
Ka [17]: 2.26e+08 M⁻¹
ΔH [17]: -29.3 kcal/mol
ΔS [17]: -60 cal/mol/deg
binding result (VAAPADPE): binds
binding result (GVAAPADP): binds
binding result (DTEEVFRS): no binding
binding result (EEQVAQDT): no binding
binding result (AQDTEEVF): no binding
binding result (TEEVFRSY): no binding
binding result (SEEQVAQD): no binding
binding result (VAQDTEEV): no binding
binding result (EQVAQDTE): no binding
binding result (EEVFRSYV): no binding
binding result (RSYVFYRH): no binding
binding result (FRSYVFYR): no binding
binding result (AEGVAAPA): binds
binding result (EVFRSYVF): no binding
binding result (SYVFYRHQ): no binding
binding result (EGVAAPAD): binds
binding result (QDTEEVFR): no binding
binding result (QVAQDTEE): no binding
binding result (VFRSYVFY): no binding
binding result (EAEGVAAP): binds
binding result [18]: no binding
Kd [19]: < 4.3 nM
B1: 26/05-7D10-17-13 antibody (antibody, V domains shown)
VH: EVELVESGGDLVQPGRSLKLSCAASGFTFSNLAMAWVRQTPTKGLEWVASISPAGITTYYRDSVKGRFTISRDNARNTQYLQMDSLRSEDTATYYCARHTGKSSFFDYWGQGVMVTVSS
VL: DVQMTQSPSYLAASPGESVSISCKATENINTYLAWYQAKPGKTTKLLLYSGSTLQSGTPSRFSGSGSGTDFTLTISSLEPEDFAVYYCQQHNEYPLTFGSGTKLEIK
notes: Rat IgG monoclonal antibody from hybridoma SW1 (ECACC 15041601), WEHI monoclonal antibody facility; also called 26/05-7D10-17-13 MAb; 26/05-7D 10-17-13 anti-Bak antibody
